Target: SUMO1(15-55) (human)
Assay: MST (FIG. 11b)

Chain of SUMO1(15-55) (human) (peptide, as listed by the source limits assumed): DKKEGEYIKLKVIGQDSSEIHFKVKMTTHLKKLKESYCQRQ

αsyn(33-58) (peptide) showed a binding ability relative to the sole β1, β2-strand peptides (fold of the sole β1, β2-strand peptides) of 0.037.

Reference: patent US20220194997A1, “SUMO PEPTIDES FOR TREATING NEURODEGENERATIVE DISEASES” (The Chinese University of Hong Kong, priority 2019, published 2022)
